Reference: publication doi:10.1101/305789
Where “and” joins values, the source holds several entries; their conditions need not be identical. Equal values may be shown once.

Molecular target: Flag-tagged tomato PCNA (Proliferating cell nuclear antigen) (Solanum lycopersicum)
Experiment: western blot of anti-Flag immuno-purified protein

Substance: Flag-tagged tomato PCNA (Proliferating cell nuclear antigen) (natural protein)
- stoichiometry N: 2 and 3
